In paper PMC6710073 (Nature chemical biology, 2019):
Like-named read-outs stand apart in the source and are kept apart here. Non-standard residues stand in square brackets, D forms with d. No end group written: not given here. Cba = N[C@@H](CC1CCC1)C(=O)O

Assays:
Assay in all cases: BLI
SUMO-25–109MDM2 [1] = biological target: T1, SUMO-25–109MDM2 (UniProt Q00987 25-109)
SUMO-25–109MDM2 [2] = biological target: T1, SUMO-25–109MDM2; remark: listed apart in the source
SUMO-25–109MDM2 [3] = biological target: T1, SUMO-25–109MDM2; remark: listed apart in the source

GSGSGSGSGSGSSQETFSDLWKLLPEN (not fully specified; D-biotin on its N terminus) [biotinylated 118: modified 15–29 p53 peptide with an N-terminal Gly-Ser linker]: binds (SUMO-25–109MDM2 [1]).

LTFEHYWAQFTSK (also: biotinylated, position not given here) [compound 6]: binds (SUMO-25–109MDM2 [2]).

With LTFEHY[hexylalanine]AQ[Cba]TSK [compound 37] the Kd (SUMO-25–109MDM2 [3]) was 0.5 nM.
